Measurements from US20230340151A1 (Pfizer, published 2023).

T1: Cynomolgus GUCY2C-ECD Cleaved (cynomolgus, UniProt P25092 24-430 (human entry))
T1 construct: also called CyGUCY2C
T1 chain: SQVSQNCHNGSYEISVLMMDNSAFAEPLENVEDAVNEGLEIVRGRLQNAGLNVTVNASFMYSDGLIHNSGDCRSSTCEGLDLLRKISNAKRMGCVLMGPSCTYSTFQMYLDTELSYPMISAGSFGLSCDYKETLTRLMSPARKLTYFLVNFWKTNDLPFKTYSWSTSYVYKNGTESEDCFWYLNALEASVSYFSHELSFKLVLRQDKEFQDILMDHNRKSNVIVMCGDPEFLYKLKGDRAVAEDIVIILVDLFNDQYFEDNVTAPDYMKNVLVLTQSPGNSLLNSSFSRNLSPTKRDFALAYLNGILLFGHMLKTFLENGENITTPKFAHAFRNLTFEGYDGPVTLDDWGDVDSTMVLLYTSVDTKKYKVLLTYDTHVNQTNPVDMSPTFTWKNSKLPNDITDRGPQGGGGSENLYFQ

T2: Murine GUCY2C-ECD cleaved (mouse, UniProt Q3UWA6 20-433)
T2 sequence: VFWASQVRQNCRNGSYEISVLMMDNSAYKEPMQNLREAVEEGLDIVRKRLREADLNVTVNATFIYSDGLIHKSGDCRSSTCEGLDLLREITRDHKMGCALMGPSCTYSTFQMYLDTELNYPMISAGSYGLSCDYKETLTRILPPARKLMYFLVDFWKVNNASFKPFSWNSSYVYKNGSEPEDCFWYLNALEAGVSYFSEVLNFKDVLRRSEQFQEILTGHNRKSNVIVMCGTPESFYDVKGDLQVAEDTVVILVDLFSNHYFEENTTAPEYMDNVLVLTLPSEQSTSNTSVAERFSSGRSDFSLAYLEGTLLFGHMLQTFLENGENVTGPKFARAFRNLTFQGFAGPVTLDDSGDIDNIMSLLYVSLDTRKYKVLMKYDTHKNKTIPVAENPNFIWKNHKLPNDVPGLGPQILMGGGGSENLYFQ

T3: Human CD3 epsilon-delta (human)
T3 construct: Single-chain epsilon-linker-delta with His6; also called huCD3
T3 chain: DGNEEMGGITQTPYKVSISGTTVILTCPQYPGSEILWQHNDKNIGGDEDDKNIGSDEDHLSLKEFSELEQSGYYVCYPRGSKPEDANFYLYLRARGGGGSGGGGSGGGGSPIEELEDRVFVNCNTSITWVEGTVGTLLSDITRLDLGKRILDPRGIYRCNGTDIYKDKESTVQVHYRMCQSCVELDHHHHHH

T4: Cynomolgus CD3 epsilon-delta (cynomolgus)
T4 chain: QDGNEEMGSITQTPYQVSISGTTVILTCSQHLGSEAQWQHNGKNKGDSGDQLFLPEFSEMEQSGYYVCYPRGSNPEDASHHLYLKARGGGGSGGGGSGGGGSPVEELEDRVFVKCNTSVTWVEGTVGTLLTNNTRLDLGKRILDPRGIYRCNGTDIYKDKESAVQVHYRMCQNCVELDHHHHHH


Experiments:
[1] = target: T5, Purified human GUCY2c ECD (recombinant, construct not stated) (human, UniProt P25092 24-430); assay: direct ELISA, coated GUCY2c ECD
T5 construct: also called recombinant human GUCY2c; recombinant GUCY2c protein
T5 sequence (P25092 24-430 limits assumed): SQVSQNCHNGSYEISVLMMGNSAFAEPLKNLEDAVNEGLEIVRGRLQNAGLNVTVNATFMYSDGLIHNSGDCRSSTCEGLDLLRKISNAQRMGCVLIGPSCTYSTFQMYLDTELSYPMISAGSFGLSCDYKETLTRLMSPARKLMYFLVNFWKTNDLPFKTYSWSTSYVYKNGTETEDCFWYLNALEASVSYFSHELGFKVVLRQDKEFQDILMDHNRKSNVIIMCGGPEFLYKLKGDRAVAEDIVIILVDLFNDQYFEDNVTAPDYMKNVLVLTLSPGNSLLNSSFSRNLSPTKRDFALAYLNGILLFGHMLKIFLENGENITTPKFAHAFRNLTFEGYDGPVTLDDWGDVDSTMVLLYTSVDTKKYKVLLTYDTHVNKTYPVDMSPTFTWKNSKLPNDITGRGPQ

Human GUCY2C ECD-muIgG2a = target: T6, Human GUCY2C ECD-muIgG2a (human); assay: sandwich ELISA: CD3 epsilon-delta coated, GUCY2c ECD-mIgG2a Fc in solution
T6 construct: also called human GUCY2c ECD-mouse IgG2a Fc fusion protein; huGUCY2c-mIgG2a
T6 sequence (chain, as listed by the source limits assumed): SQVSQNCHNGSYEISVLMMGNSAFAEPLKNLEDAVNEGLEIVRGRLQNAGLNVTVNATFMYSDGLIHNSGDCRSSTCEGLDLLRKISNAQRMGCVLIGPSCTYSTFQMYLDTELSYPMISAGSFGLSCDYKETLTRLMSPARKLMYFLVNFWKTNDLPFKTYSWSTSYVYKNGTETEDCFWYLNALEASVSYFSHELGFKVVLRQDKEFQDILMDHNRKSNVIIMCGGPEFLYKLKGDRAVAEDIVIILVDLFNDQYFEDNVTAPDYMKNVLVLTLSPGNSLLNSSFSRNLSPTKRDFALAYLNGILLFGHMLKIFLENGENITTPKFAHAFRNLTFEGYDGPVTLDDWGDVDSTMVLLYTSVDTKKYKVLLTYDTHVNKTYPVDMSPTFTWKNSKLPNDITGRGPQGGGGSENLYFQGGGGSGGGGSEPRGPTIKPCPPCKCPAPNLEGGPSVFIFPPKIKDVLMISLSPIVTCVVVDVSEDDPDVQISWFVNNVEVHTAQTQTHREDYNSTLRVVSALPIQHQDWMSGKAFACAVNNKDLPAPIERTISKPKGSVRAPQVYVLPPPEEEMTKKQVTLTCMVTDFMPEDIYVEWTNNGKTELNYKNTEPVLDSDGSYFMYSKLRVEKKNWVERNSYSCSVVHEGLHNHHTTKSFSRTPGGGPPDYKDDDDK

[2] = target: Human GUCY2c on tumor cells (T84, HT55) (human, UniProt P25092 24-1073); assay: cell-based or functional assay
Human GUCY2c on tumor cells (T84, HT55), sequence (P25092 24-1073 limits assumed): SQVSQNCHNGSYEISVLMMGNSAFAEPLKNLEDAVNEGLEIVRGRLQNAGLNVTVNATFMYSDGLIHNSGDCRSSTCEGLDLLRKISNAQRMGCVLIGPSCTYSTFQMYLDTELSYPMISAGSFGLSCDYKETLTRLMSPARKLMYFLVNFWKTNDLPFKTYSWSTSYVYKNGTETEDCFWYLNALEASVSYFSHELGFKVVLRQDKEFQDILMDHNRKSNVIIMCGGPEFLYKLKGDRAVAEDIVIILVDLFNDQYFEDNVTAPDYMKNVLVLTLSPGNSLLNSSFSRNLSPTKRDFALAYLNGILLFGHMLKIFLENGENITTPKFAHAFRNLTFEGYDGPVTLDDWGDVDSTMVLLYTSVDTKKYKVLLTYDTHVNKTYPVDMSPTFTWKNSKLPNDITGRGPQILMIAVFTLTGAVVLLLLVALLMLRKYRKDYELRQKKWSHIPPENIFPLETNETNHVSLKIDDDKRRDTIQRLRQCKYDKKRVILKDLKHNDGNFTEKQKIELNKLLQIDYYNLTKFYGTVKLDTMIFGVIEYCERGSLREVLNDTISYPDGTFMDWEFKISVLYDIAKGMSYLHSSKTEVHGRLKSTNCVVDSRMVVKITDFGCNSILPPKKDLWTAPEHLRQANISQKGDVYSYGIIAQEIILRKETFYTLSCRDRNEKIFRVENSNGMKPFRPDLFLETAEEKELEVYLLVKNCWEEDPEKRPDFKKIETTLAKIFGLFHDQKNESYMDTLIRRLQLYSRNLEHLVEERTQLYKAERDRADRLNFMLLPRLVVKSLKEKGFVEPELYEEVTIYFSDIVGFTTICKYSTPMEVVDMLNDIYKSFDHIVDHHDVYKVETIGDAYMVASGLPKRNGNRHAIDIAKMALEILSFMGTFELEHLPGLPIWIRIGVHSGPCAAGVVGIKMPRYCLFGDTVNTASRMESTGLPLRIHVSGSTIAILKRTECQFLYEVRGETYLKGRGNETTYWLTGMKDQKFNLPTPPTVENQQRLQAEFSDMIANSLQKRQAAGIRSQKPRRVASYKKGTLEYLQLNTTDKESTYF

[3] = target: T1, Cynomolgus GUCY2C-ECD Cleaved; assay: SPR, anti-human IgG capture, 25 C
[4] = target: T2, Murine GUCY2C-ECD cleaved; assay: SPR, anti-human IgG capture, 25 C
Human CD3 epsilon-delta [5] = target: T3, Human CD3 epsilon-delta; assay: SPR, anti-human IgG capture, 25 C
[6] = target: T7, Human GUCY2C full length (SEQ ID NO: 224), recombinant protein (human, UniProt P25092 24-430, limits assumed); assay: SPR, anti-human IgG capture, 25 C
T7 construct: also called huGUCY2C; biotinylated human GUCY2c
T7 sequence (P25092 24-430 F281L limits assumed): as the sequence (P25092 24-430 limits assumed) above, with F258L counted along it

Human CD3 epsilon-delta [7] = target: T3, Human CD3 epsilon-delta; assay: direct ELISA, coated CD3 epsilon-delta
[8] = target: T4, Cynomolgus CD3 epsilon-delta; assay: SPR, printed anti-His capture, 25 C (Table 33D)
[9] = target: T7, Human GUCY2C full length (SEQ ID NO: …); assay: SPR, GUCY2c directly immobilized, 25 C
[10] = target: T5, Purified human GUCY2c ECD (recombinant, …); assay: ELISA; column 'Direct huGUCY2C binding (nM)'

| Binder | EC50 [1] [nM] | EC50 (Human GUCY2C ECD-muIgG2a) [nM] | T84 tumor cell EC50 (T cell cytotoxicity, E:T 10:1) [2] [nM] | EC50 (Human CD3 epsilon-delta [7]) [nM] | Kd [9] [nM] | koff [9] [s⁻¹] | kon [9] [M⁻¹ s⁻¹] | EC50 [10] [nM] | other results |
| --- | --- | --- | --- | --- | --- | --- | --- | --- | --- |
| GUCY2C-0074 (bispecific antibody, chimeric CD3-GUCY2c diabody-Fc, CD3-0004) chain 1: DIVLTQSPASLAVSLGQRATISCRASESVDNYGISFMNWFQQKPGQPPKLLIYAASNPGSGVPARFSGSGSGTDFSLNIHPLEEDDTAMFFCQQSKEVPYTFGGGTKLEIKGGGSGGGGEVQLVESGGGLVQPGGSLRLSCAASGFTFSDYYMTWVRQAPGKGLEWVAFIRNRARGYTSDHNPSVKGRFTISRDNAKNSLYLQMNSLRAEDTAVYYCARDRPSYYVLDYWGQGTTVTVSSGCPPCPAPEAAGAPSVFLFPPKPKDTLMISRTPEVTCVVVDVSHEDPEVKFNWYVDGVEVHNAKTKPREEQYNSTYRVVSVLTVLHQDWLNGKEYKCKVSNKALPAPIEKTISKAKGQPREPQVCTLPPSREEMTKNQVSLWCLVKGFYPSDIAVEWESNGQPENNYKTTPPVLDSDGSFFLYSKLTVDKSRWQQGNVFSCSVMHEALHNHYTQKSLSLSPG chain 2: DIVMTQSPDSLAVSLGERATINCKSSQSLFNVRSRKNYLAWYQQKPGQPPKLLISWASTRESGVPDRFSGSGSGTDFTLTISSLQAEDVAVYYCKQSYDLFTFGSGTKLEIKGGGSGGGGEVQLQQSGAELARPGASVNLSCKASGYTFTTYWMQWVKQRPGQGLEWIGAIYPGDGMTTYTQKFKDKATLTADKSSSTAYMQLSSLASEDSAVYYCVRKGMDYWGQGTSVTVSSGCPPCPAPEAAGAPSVFLFPPKPKDTLMISRTPEVTCVVVDVSHEDPEVKFNWYVDGVEVHNAKTKPREEQYNSTYRVVSVLTVLHQDWLNGKEYKCKVSNKALPAPIEKTISKAKGQPREPQVYTLPPCREEMTKNQVSLSCAVKGFYPSDIAVEWESNGQPENNYKTTPPVLDSDGSFFLVSKLTVDKSRWQQGNVFSCSVMHEALHNHYTQKSLSLSPG | > 100 | 4.05 | 2.6 | 1.13 | – | – | – | – | Kd [3]: 60.4 nM; koff [3]: 0.00284 s⁻¹; kon [3]: 47300 M⁻¹ s⁻¹; Kd [4]: 191 nM; koff [4]: 0.00282 s⁻¹; kon [4]: 14800 M⁻¹ s⁻¹; Kd (Human CD3 epsilon-delta [5]): 2.17 nM; koff (Human CD3 epsilon-delta [5]): 0.000861 s⁻¹; kon (Human CD3 epsilon-delta [5]): 471000 M⁻¹ s⁻¹; Kd [6]: 45.4 nM; koff [6]: 0.002 s⁻¹; kon [6]: 44100 M⁻¹ s⁻¹; Kd [8]: 2.64 nM; koff [8]: 0.00112 s⁻¹; kon [8]: 425000 M⁻¹ s⁻¹ |
| GUCY2C-0077 (bispecific antibody) chain 1: DIVLTQSPASLAVSLGQRATISCRASESVDNFDISFMNWFQQKPGQPPKLLIYAASNQGSGVPARFSGSGSGTDFSLNIHPMEEDDTAMYFCQQSKEVPYTFGGGTKLEIKGGGSGGGGEVQLVESGGGLVQPGGSLRLSCAASGFTFSDYYMTWVRQAPGKGLEWVAFIRNRARGYTSDHNPSVKGRFTISRDNAKNSLYLQMNSLRAEDTAVYYCARDRPSYYVLDYWGQGTTVTVSSGCPPCPAPEAAGAPSVFLFPPKPKDTLMISRTPEVTCVVVDVSHEDPEVKFNWYVDGVEVHNAKTKPREEQYNSTYRVVSVLTVLHQDWLNGKEYKCKVSNKALPAPIEKTISKAKGQPREPQVCTLPPSREEMTKNQVSLWCLVKGFYPSDIAVEWESNGQPENNYKTTPPVLDSDGSFFLYSKLTVDKSRWQQGNVFSCSVMHEALHNHYTQKSLSLSPG chain 2: DIVMTQSPDSLAVSLGERATINCKSSQSLFNVRSRKNYLAWYQQKPGQPPKLLISWASTRESGVPDRFSGSGSGTDFTLTISSLQAEDVAVYYCKQSYDLFTFGSGTKLEIKGGGSGGGGEVQLQQSGAELARPGASVKLSCKASGYTFTKYWMQWIKQRPGQGLEWIGAIYPGDGFTTYTQKFKGKATLTADKSSNTAYMQLSSLASEDSAVYYCARRNYGRTYGGDYWGQGTSVTVSSGCPPCPAPEAAGAPSVFLFPPKPKDTLMISRTPEVTCVVVDVSHEDPEVKFNWYVDGVEVHNAKTKPREEQYNSTYRVVSVLTVLHQDWLNGKEYKCKVSNKALPAPIEKTISKAKGQPREPQVYTLPPCREEMTKNQVSLSCAVKGFYPSDIAVEWESNGQPENNYKTTPPVLDSDGSFFLVSKLTVDKSRWQQGNVFSCSVMHEALHNHYTQKSLSLSPG | 27.5 | 7.5 | 28.7 | 0.887 | 160 | 0.0224 | 143000 | – | – |
| GUCY2C-0193 (antibody, human IgG1, V domains shown) VH: EVQLVESGGGLVQPGGSLRLSCAASGYTFTSYWMHWVRQAPGKGLEWIGEIKPSNGLTNYIEKFKNRFTISVDKAKNSAYLQMNSLRAEDTAVYYCTRTITTTEGYWFFDVWGQGTLVTVSS VL: DIQMTQSPSSLSASVGDRVTITCRASESVDYYGTSLMQWYQQKPGKAPKLLIYAASNVESGVPSRFSGSGSGTDFTLTISSLQPEDFATYYCQQTRKVYTFGQGTKLEIK | – | – | – | – | – | – | – | 0.23 | – |
| GUCY2C-0179 (antibody, human IgG1, V domains shown) VH: EVQLVESGGGLVQPGGSLRLSCAASGYSFTDYIMLWVRQAPGKGLEWIGNSNPYYGSTSYNLKFKGRFTISVDKAKNSAYLQMNSLRAEDTAVYYCARSGYYGSSPYWYFDVWGQGTMVTVSS VL: DIQMTQSPSSLSASVGDRVTITCKSSQSLLYSSNQKNYLAWYQQKPGKSPKLLIYWASTRESGVPSRFSGSGSGTDFTLTISSLQPEDFATYYCQQYYSYPTFGGGTKVEIK | – | – | – | – | – | – | – | 5.14 | – |
| GUCY2C-0166 (antibody, human IgG1, V domains shown, human IgG1) VH: EVQLVESGGGLVQPGGSLRLSCAASGYTFTTYWMQWVRQAPGKGLEWIGAIYPGDGMTTYTQKFKDRFTISADKAKNSAYLQMNSLRAEDTAVYYCVRKGMDYWGQGTLVTVSS VL: DIQLTQSPSSLSASVGDRVTITCRASESVDNYGISFMNWFQQKPGKAPKLLIYAASNPGSGVPSRFSGSGSGTDFTLTISSLQPEDFATYYCQQSKEVPYTFGQGTKLEIK | – | – | – | – | – | – | – | 0.0693 | – |
| GUCY2C-0104 (bispecific antibody) chain 1: DIVMTQSPASLAVSLGQRATISCRASKGVTTSGYSYMHWYQQKPGQPPKLLIYLASNLESGVPARFSGSGSGTDFTLNIHPVEEEDAATYYCQHSREFPLTFGAGTKLELKGGGSGGGGEVQLVESGGGLVQPGGSLRLSCAASGFTFSDYYMTWVRQAPGKGLEWVAFIRNRARGYTSDHNPSVKGRFTISRDNAKNSLYLQMNSLRAEDTAVYYCARDRPSYYVLDYWGQGTTVTVSSGCPPCPAPEAAGAPSVFLFPPKPKDTLMISRTPEVTCVVVDVSHEDPEVKFNWYVDGVEVHNAKTKPREEQYNSTYRVVSVLTVLHQDWLNGKEYKCKVSNKALPAPIEKTISKAKGQPREPQVCTLPPSREEMTKNQVSLWCLVKGFYPSDIAVEWESNGQPENNYKTTPPVLDSDGSFFLYSKLTVDKSRWQQGNVFSCSVMHEALHNHYTQKSLSLSPG chain 2: DIVMTQSPDSLAVSLGERATINCKSSQSLFNVRSRKNYLAWYQQKPGQPPKLLISWASTRESGVPDRFSGSGSGTDFTLTISSLQAEDVAVYYCKQSYDLFTFGSGTKLEIKGGGSGGGGEVQLQQSGAELVKPGASVKLSCTASGFNIKDTYIHWVKQRPEQGLEWIGRIDPANGNANYDPKFQGKATITADTSSNTAYLQLSSLTSEDTAVFYCSSLGTGTYWGQGTTLTVSSGCPPCPAPEAAGAPSVFLFPPKPKDTLMISRTPEVTCVVVDVSHEDPEVKFNWYVDGVEVHNAKTKPREEQYNSTYRVVSVLTVLHQDWLNGKEYKCKVSNKALPAPIEKTISKAKGQPREPQVYTLPPCREEMTKNQVSLSCAVKGFYPSDIAVEWESNGQPENNYKTTPPVLDSDGSFFLVSKLTVDKSRWQQGNVFSCSVMHEALHNHYTQKSLSLSPG | > 100 | 2.48 | 14.9 | 0.418 | 26.1 | 0.00386 | 148000 | – | – |
